Measurements taken from the supplement of paper PMC10724198.
± gives the standard deviation of the averaged measurements.

Tested on: Saccharomyces cerevisiae
Assay: protein stability index of tFT-peptide fusion (C-terminal peptide) (PSI (0-1 scale)); higher = more stable (slower turnover)
Details: genetic background: wild type; temperature: 30 C
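Further: PSI is a weighted mean of sequencing reads over stability bins, variants kept only with over 10 reads, mCherry proximal and sfGFP distal, peptide attached via GGGS linker.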

**Q.** For STFYSALRVGTR, which protein stability index is on record?
**A.** 0.668 ± 0.019

**Q.** With STGAVREFRFFA as the sequence, how does the protein stability index read?
**A.** 0.643 ± 0.053

**Q.** How did the protein stability index turn out when STGLDPAAGAHL was run?
**A.** 0.657 ± 0.06

**Q.** How did the protein stability index turn out when STGTASAHRVQI was run?
**A.** 0.66 ± 0.011

**Q.** With STHSRLCATVPP as the sequence, how does the protein stability index read?
**A.** 0.591 ± 0.027

**Q.** How did the protein stability index turn out when STPLRNLEITIA was run?
**A.** 0.679 ± 0.15

**Q.** STPPPPALPEYQ was tested. Which protein stability index did it give?
**A.** 0.698 ± 0.023

**Q.** For STPSPQPYIAPT, which protein stability index is on record?
**A.** 0.735 ± 0.06

**Q.** With STSACPTPRTCS as the sequence, how does the protein stability index read?
**A.** 0.6192 ± 0.001

**Q.** Which protein stability index does the source give for STSHSFGVLIAS here?
**A.** 0.662 ± 0.0094

**Q.** Which protein stability index does the source give for STSIRHGLHSVE here?
**A.** 0.673 ± 0.05

**Q.** With STVRFGAPDYVH as the sequence, how does the protein stability index read?
**A.** 0.6774 ± 0.0026

**Q.** How did the protein stability index turn out when SVAPRLFSPSHP was run?
**A.** 0.6548 ± 0.0055

**Q.** With SVDMYTNNYKIH as the sequence, how does the protein stability index read?
**A.** 0.549 ± 0.038

**Q.** For SVESEWHLLLTP, which protein stability index is on record?
**A.** 0.744 ± 0.013

**Q.** For SVFECKYNTLGR, which protein stability index is on record?
**A.** 0.671 ± 0.017

**Q.** Which protein stability index does the source give for SVFPSAVCSLGC here?
**A.** 0.6895 ± 0.005

**Q.** SVGGSLFLGRRG was tested. Which protein stability index did it give?
**A.** 0.68 ± 0.072

**Q.** Which protein stability index does the source give for SVLPSLRPGSGL here?
**A.** 0.707 ± 0.016

**Q.** How did the protein stability index turn out when SVLPSVAGIKSG was run?
**A.** 0.593 ± 0.046

**Q.** How did the protein stability index turn out when SVLTSYFFYLPP was run?
**A.** 0.6869 ± 0.0046

**Q.** Which protein stability index does the source give for SVPHRLLSVPPV here?
**A.** 0.6816 ± 0.0014

**Q.** SVPPRPLALSLL was tested. Which protein stability index did it give?
**A.** 0.76 ± 0.026

**Q.** SVPSLPLSFPPF was tested. Which protein stability index did it give?
**A.** 0.787 ± 0.032

**Q.** How did the protein stability index turn out when SVRGWMILCTGM was run?
**A.** 0.562 ± 0.049

**Q.** SVSPPLPPSSIA was tested. Which protein stability index did it give?
**A.** 0.673 ± 0.021

**Q.** SVSPPLSFPPSR was tested. Which protein stability index did it give?
**A.** 0.706 ± 0.022

**Q.** How did the protein stability index turn out when SVTLSVSCPMLR was run?
**A.** 0.708 ± 0.024

**Q.** SVVRKDNKLHTV was tested. Which protein stability index did it give?
**A.** 0.596 ± 0.035

**Q.** With SVWSSIMSVSFL as the sequence, how does the protein stability index read?
**A.** 0.6179 ± 0.00082

**Q.** For SVYLPLGVLQCI, which protein stability index is on record?
**A.** 0.577 ± 0.032

**Q.** Which protein stability index does the source give for SWGCSMAKVWVR here?
**A.** 0.585 ± 0.038

**Q.** SWGEVRRRGCSV was tested. Which protein stability index did it give?
**A.** 0.637 ± 0.0065

**Q.** With SWLASASGSHLI as the sequence, how does the protein stability index read?
**A.** 0.74 ± 0.015

**Q.** For SWSAVPHSPLMP, which protein stability index is on record?
**A.** 0.823 ± 0.068

**Q.** With SWVDGGVRRCGV as the sequence, how does the protein stability index read?
**A.** 0.662 ± 0.019

**Q.** SYGPSRPARVPS was tested. Which protein stability index did it give?
**A.** 0.695 ± 0.05

**Q.** How did the protein stability index turn out when SYGRECCGYASA was run?
**A.** 0.764 ± 0.081

**Q.** Which protein stability index does the source give for SYLLPHTRFCFL here?
**A.** 0.674 ± 0.034

**Q.** Which protein stability index does the source give for SYRTCIRHSNAP here?
**A.** 0.7655 ± 0.0074

**Q.** For SYRWAFPGVFSG, which protein stability index is on record?
**A.** 0.678 ± 0.031

**Q.** SYVAERVMSRMV was tested. Which protein stability index did it give?
**A.** 0.65 ± 0.0087

**Q.** For SYVLLLYTGCRM, which protein stability index is on record?
**A.** 0.585 ± 0.02

**Q.** With SYWARCVHTTIA as the sequence, how does the protein stability index read?
**A.** 0.669 ± 0.02

**Q.** For TARRAAARSSQL, which protein stability index is on record?
**A.** 0.742 ± 0.03

**Q.** For TAVGRKWCGRVL, which protein stability index is on record?
**A.** 0.695 ± 0.028

**Q.** With TAYPPAPFRRIN as the sequence, how does the protein stability index read?
**A.** 0.492 ± 0.057

**Q.** For TCHPLCSSSADR, which protein stability index is on record?
**A.** 0.712 ± 0.039

**Q.** Which protein stability index does the source give for TCLDVFACYASF here?
**A.** 0.666 ± 0.017

**Q.** Which protein stability index does the source give for TCRYSSIVDKGS here?
**A.** 0.612 ± 0.008

**Q.** Which protein stability index does the source give for TCSSQMSSNFRF here?
**A.** 0.638 ± 0.033

**Q.** For TDGVVRPQRQAT, which protein stability index is on record?
**A.** 0.69 ± 0.0093

**Q.** Which protein stability index does the source give for TDLPTSMHETRN here?
**A.** 0.695 ± 0.028

**Q.** Which protein stability index does the source give for TDLSLSPAALRH here?
**A.** 0.717 ± 0.1

**Q.** With TDLSPFPALFSL as the sequence, how does the protein stability index read?
**A.** 0.766 ± 0.15

**Q.** With TDNVVAEKRKSK as the sequence, how does the protein stability index read?
**A.** 0.701 ± 0.18

**Q.** With TDPKLTRTHENE as the sequence, how does the protein stability index read?
**A.** 0.674 ± 0.014

**Q.** With TEGKPQVDPFDH as the sequence, how does the protein stability index read?
**A.** 0.704 ± 0.076

**Q.** For TEGMISSHRVIH, which protein stability index is on record?
**A.** 0.727 ± 0.058

**Q.** For TEKAEVSTSSCR, which protein stability index is on record?
**A.** 0.71 ± 0.033

**Q.** For TEKERSKKDELK, which protein stability index is on record?
**A.** 0.673 ± 0.064

**Q.** For TEKWTRSSPMTR, which protein stability index is on record?
**A.** 0.764 ± 0.087

**Q.** With TELCPPDTPTGD as the sequence, how does the protein stability index read?
**A.** 0.6921 ± 0.0016

**Q.** TELRRRVGYVAL was tested. Which protein stability index did it give?
**A.** 0.663 ± 0.032

**Q.** With TEPHSDQPKKNA as the sequence, how does the protein stability index read?
**A.** 0.701 ± 0.14

**Q.** How did the protein stability index turn out when TETFARTATRRP was run?
**A.** 0.587 ± 0.022

**Q.** TFGGLRVGFSSL was tested. Which protein stability index did it give?
**A.** 0.684 ± 0.028

**Q.** For TFHCGPFRLFSC, which protein stability index is on record?
**A.** 0.6545 ± 0.0055

**Q.** With TFLQRFCVGLAL as the sequence, how does the protein stability index read?
**A.** 0.654 ± 0.041

**Q.** How did the protein stability index turn out when TFLVDLLSLFFL was run?
**A.** 0.65 ± 0.046

**Q.** Which protein stability index does the source give for TFRRFKVQQLGN here?
**A.** 0.561 ± 0.023

**Q.** How did the protein stability index turn out when TGAALPRPGPAL was run?
**A.** 0.659 ± 0.031

**Q.** For TGDIKYYKDKLE, which protein stability index is on record?
**A.** 0.639 ± 0.0097

**Q.** With TGDTIQNTNCEM as the sequence, how does the protein stability index read?
**A.** 0.689 ± 0.027

**Q.** For TGFGSLWCRSSG, which protein stability index is on record?
**A.** 0.743 ± 0.062

**Q.** How did the protein stability index turn out when TGFGVQRKECGT was run?
**A.** 0.629 ± 0.0066

**Q.** Which protein stability index does the source give for TGLRLFRPLSLP here?
**A.** 0.776 ± 0.069

**Q.** For TGMRKDLVVSFW, which protein stability index is on record?
**A.** 0.728 ± 0.051

**Q.** How did the protein stability index turn out when TGSAIVPHQVPS was run?
**A.** 0.653 ± 0.015

**Q.** TGVRTVCDVGRW was tested. Which protein stability index did it give?
**A.** 0.6648 ± 0.004

**Q.** For TGWRGVLGLGPG, which protein stability index is on record?
**A.** 0.674 ± 0.02

**Q.** THHQDGGRAAVR was tested. Which protein stability index did it give?
**A.** 0.67913 ± 0.00062

**Q.** How did the protein stability index turn out when THPLPAPAPLRP was run?
**A.** 0.762 ± 0.027

**Q.** Which protein stability index does the source give for THPPSLAPPRKA here?
**A.** 0.712 ± 0.0074

**Q.** How did the protein stability index turn out when THVPPSPIPPIM was run?
**A.** 0.675 ± 0.0099

**Q.** THYFNIKCSQTK was tested. Which protein stability index did it give?
**A.** 0.665 ± 0.013

**Q.** THYSTQPKSTKC was tested. Which protein stability index did it give?
**A.** 0.689 ± 0.027

**Q.** For TIGVTCSRLGRG, which protein stability index is on record?
**A.** 0.685 ± 0.014

**Q.** How did the protein stability index turn out when TIIGLVSANEYL was run?
**A.** 0.582 ± 0.1

**Q.** TIKSATLVSFST was tested. Which protein stability index did it give?
**A.** 0.671 ± 0.072

**Q.** For TILPDYTSRILA, which protein stability index is on record?
**A.** 0.62 ± 0.012

**Q.** How did the protein stability index turn out when TIRFWRSIFPHA was run?
**A.** 0.728 ± 0.051

**Q.** For TISRRSCGPAQK, which protein stability index is on record?
**A.** 0.6743 ± 0.0041

**Q.** For TKDRGRVYRQRG, which protein stability index is on record?
**A.** 0.798 ± 0.051

**Q.** For TKERERAAGKKT, which protein stability index is on record?
**A.** 0.7005 ± 0.0067

**Q.** With TKIKKKKNKKQE as the sequence, how does the protein stability index read?
**A.** 0.731 ± 0.0013

**Q.** For TKKETRDKKVER, which protein stability index is on record?
**A.** 0.721 ± 0.0086

**Q.** With TKKIKTDTEENN as the sequence, how does the protein stability index read?
**A.** 0.701 ± 0.043

**Q.** With TKRKKKTQEGSR as the sequence, how does the protein stability index read?
**A.** 0.698 ± 0.045

**Q.** For TKRKKLEIGFLR, which protein stability index is on record?
**A.** 0.625 ± 0.079

**Q.** Which protein stability index does the source give for TKTCPMGVIEIC here?
**A.** 0.656 ± 0.0013
